Values joined by “and” are separate entries in the source; they are usually repeats but may differ in a detail not shown here. Identical values can stand only once.
Settings: Escherichia coli (strain K12), pH 7.8, 25 °C, Urea, Potassium phosphate 10 mM, transition: 2, whole UniProt chain shown

B1: Tryptophan synthase alpha chain wild type, P0A877 (protein)
chain: MERYESLFAQLKERKEGAFVPFVTLGDPGIEQSLKIIDTLIEAGADALELGIPFSDPLADGPTIQNATLRAFAAGVTPAQCFEMLALIRQKHPTIPIGLLMYANLVFNKGIDEFYAQCEKVGVDSVLVADVPVEESAPFRQAALRHNVAPIFICPPNADDDLLRQIASYGRGYTYLLSRAGVTGAENRAALPLNHLVAKLKEYNAAPPLQGFGISAPDQVKAAIDAGAAGAISGSAIVKIIEQHINEPEKMLAALKVFVQPMKAATRS
- denaturant m value (Absorbance): 1.12 kcal/mol/M
- denaturant midpoint (higher = more stable) (Absorbance): 3.73 M
- unfolding free energy (Absorbance): 4.16 kcal/mol
- denaturant m value (CD): 1.11 kcal/mol/M and 1.09 kcal/mol/M
- denaturant midpoint (higher = more stable) (CD): 3.67 M and 3.65 M
- unfolding free energy (CD): 4.08 kcal/mol and 3.96 kcal/mol
- denaturant m value (Fluorescence): 1.09 kcal/mol/M
- denaturant midpoint (higher = more stable) (Fluorescence): 3.81 M
- unfolding free energy (Fluorescence): 4.14 kcal/mol
